Source: patent US20250163410

Test system: VchCAST TnsB transposase (Tn6677; assayed with TnsA-TnsC and TniQ-Cascade) (Vibrio cholerae)
Test: cell_activity
Details: T-RL; for binding signal: no IPTG

AATGTTGTTGAAACAACCATAAAGTGATAACAACGAATCAATTAAAATCATAGGCTTAATCGAAAAACAACCATATCTTGATATCGCATAAAACAACCATAAGTTGATATTTTGGTGAAAAGGATATTCCAACCTTCATAGTTTAGTAAGAA (double strand) [Left end hyperactive 4668]
binding signal: 1.76 fold vs WT

AATGTTGTTGATGCAACCATAAAGTGATATTTAATAATTATTTATAATCAGCAACTGAACCACAAAACAACCATATATTGATATCTCACAAAACAACCATAAGTTGATATTTTTGTGAATCGAGTATTTCAGCAAAACTACTGCAGTAAGAA (double strand) [Left end variant 3311]
binding signal (log2 fold vs WT) (second replicate -0.9350): -1.73

AATGTTGTTGATGCAACCATAAAGTGATATTTAATAATTATTTATAATCAGCAACTTAACCACAAAACAACCAGATATTGATATCTCACAAAACAACCATAAGTTGATATTTTTGTGAATCGAGTATTTCAGCAAAACTACTGCAGTAAGAA (double strand) [Left end variant 3260]
binding signal (log2 fold vs WT) (second replicate -0.7874): -1.91

AATGTTGTTGATGCAACCATAAAGTGATATTTAATAATTATTTATAATCAGCAACTTAACCACAAAACAACCATATATTCATATCTCACAAAACAACCATAAGTTGATATTTTTGTGAATCGAGTATTTCAGCAAAACTACTGCAGTAAGAA (double strand) [Left end variant 3243]
binding signal (log2 fold vs WT) (second replicate -1.5930): -2.53

AATGTTGTTGATGCAACCATAAAGTGATATTTAATAATTATTTATAATCAGCAACTTAACCACAAAACAACCATATATTGATATCTCACAAAACAACCATAAGTTCATATTTTTGTGAATCGAGTATTTCAGCAAAACTACTGCAGTAAGAA (double strand) [Left end variant 3165]
binding signal (log2 fold vs WT) (second replicate -1.3719): -2.25

AATGTTGTTGATGCAACCATAAAGTGATATTTAATAATTATTTATAATCAGCAACTTAACCACAAAACAACCATATATTGATATCTCACAAAACAACCATAAGTTGATATTTTTGTGAATAGGATATTCCAACCTTCATAGTTTAGTAAGAA (double strand) [Left end hyperactive 4673]
binding signal: 1.53 fold vs WT

AATGTTGTTGATGCAACCATAAAGTGATATTTAATAATTATTTATAATCAGCAACTTAACCACAAAACAACCATATATTGATATCTCACAAAACACCCATAAGTTGATATTTTTGTGAATCGAGTATTTCAGCAAAACTACTGCAGTAAGAA (double strand) [Left end variant 3195]
binding signal (log2 fold vs WT) (second replicate 0.7256): 0.722

AATGTTGTTGATGCAACCATAAAGTGATATTTAATAATTATTTATAATCAGCAACTTAACCTCAAAACAACCATATATTGATATCTCACAAAACAACCATAAGTTGATATTTTTGTGAATCGAGTATTTCAGCAAAACTACTGCAGTAAGAA (double strand) [Left end variant 3295]
binding signal (log2 fold vs WT) (second replicate 1.3754): 0.963

AATGTTGTTGATGCAACCATAAAGTGATATTTACGAATCAATTAAAATCATAGGCTTAATCGAAAAACAACCATATATTGATATCTCATAAAACAACCATAAGTTGATATTTTGGTGAAAAGGATATTCCAACCTTCATAGTTTAGTAAGAA (double strand) [Left end hyperactive 4666]
binding signal: 2.58 fold vs WT

ACATTAGTTGATACAACCATAAAATGATAATTACACCCATAAATTGATAATTATCACACCCATAAATTGATATTGCCTCTGATCATAGTCAGACCAACATTGCTACGACCCGTATTCGCACCGACAC (double strand) [Right end variant 1068]
binding signal (log2 fold vs WT) (second replicate -5.4441): -6.17

ACATTCGTTGATACAACCATAAAATGATAATTACACCCATAAATTGATAATTATCACACCCATAAATTGATATTGCCTCTGATCATAGTCAGACCAACATTGCTACGACCCGTATTCGCACCGACAC (double strand) [Right end variant 1070]
binding signal (log2 fold vs WT) (second replicate): -1.95

ACATTGGTTGATACAACCATAAAATGATAATTACACCCATAAATTGATAATTATCACACCCATAAATTGATATTGCCTCTGATCATAGTCAGACCAACATTGCTACGACCCGTATTCGCACCGACAC (double strand) [Right end variant 1069]
binding signal (log2 fold vs WT) (second replicate -6.7160): -6.61

ACATTTGGTGATACAACCATAAAATGATAATTACACCCATAAATTGATAATTATCACACCCATAAATTGATATTGCCTCTGATCATAGTCAGACCAACATTGCTACGACCCGTATTCGCACCGACAC (double strand) [Right end variant 1063]
binding signal (log2 fold vs WT) (second replicate -5.3052): -6.47
